From the nanobody polyreactivity screen of Harvey et al. (2022)

Experiment: yeast display, Sf9 membrane polyspecificity reagent, FACS + sequencing; frameworks hold sequencing errors
Procedure, shortened: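 Sorting gates, low and high (top ~1%), were placed on anti-HA fluorescence to track expression and on streptavidin fluorescence to track reagent binding. A clone's polyreactivity label is taken from the gate it came out of. The reagent was 10% biotinylated, detergent-solubilized Sf9 membrane, applied for 1 hour at 4 °C to galactose-induced yeast display cells.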

## QVQHVESGGGLVQAGGRLRLTCPASGSTVGYYAMGWYRQAPGKEREFVATITFGGSTHYADSVKGRFTISRDNAKYTVYLQMNSLKPEDTAFYYCAKRYYTNRHSRAFGYWGQGTQVTVSS
  polyreactivity (PSR sort gate): high polyreactivity

## QVQHVESGGGLVQAGGSLLLSCAASGFIFKSNAMGWYRQAPGKERELVAAITSSGGRTYYADSVKGRFTISRDNAKNTVYLQMNSLKPEDTAVYYCAADIALGRYYYWGQGTQVTVSS
  polyreactivity (PSR sort gate): high polyreactivity

## QVQHVESGGGLVQAGGSLLLSCAASGSTFARYAMGWYRQPPGKERELVAAISRSGSNTYYADSVKGRFTISRDNAKNTVYLQMNSLKPEDTAVYYCNRTHRQSFSKLDYWGQGTQVTVSS
  polyreactivity (PSR sort gate): high polyreactivity

## QVQHVESGGGLVQAGGSLRISCAPSGRTFFPNAMGCYRQAPGKEREFVAAITKTDDSTYYADSVKGRFTISRDNAKNTVYLPMNSLKPEDTAVYYCNAGDTQIRFYYWGQGTQETVSS
  polyreactivity (PSR sort gate): low polyreactivity

## QVQHVESGGGLVQAGGSLRLICAASGITFHYYAMGWYRQAPGKDRELVAAISSGGRTNYADSVKGRFTISRDNAKNTVYLQMNCLKPEDTAVYYCAGVYFGGYTATVYYWGQGTQVTVSS
  polyreactivity (PSR sort gate): high polyreactivity

## QVQHVESGGGLVQAGGSLRLICAASGRIFTRYAMGWYRQAPGKERELVAAISASGGSTHYADSVKGRFTISRDNAKNTVYLQMNSLKPEDTAVYYCADAYVSRNSGFGYWGQGTQVTVSS
  polyreactivity (PSR sort gate): low polyreactivity

## QVQHVESGGGLVQAGGSLRLSCAACGRTFTPYAMGWYLQEPGKDREFVAAIDTSGGSTYADSVNGRFTISRDNAKYTVYLQKNSLKPEDTAVYYCGTRGFYSWDYWYLWEYDYWGQGTQVTVSS
  polyreactivity (PSR sort gate): low polyreactivity

## QVQHVESGGGLVQAGGSLRLSCAASAFTFRFYAMGWYRQAPAKEMELVAAISWSGTSTYYADSVKGRFTLSRDNAKNTVYLQMNSLIQDDTAVYYCATQYRRRQRKYDYWGQGTQVTVSS
  polyreactivity (PSR sort gate): high polyreactivity

## QVQHVESGGGLVQAGGSLRLSCAASARTFHGYPLGVYRQAAGKETELVARINWSDGRTYYADSVKGRFTMSRDNAKNTVYFQMNSLKPEDTAFYYCAAEKTVSYAPAWYYYWGQGTQVTVSS
  polyreactivity (PSR sort gate): low polyreactivity

## QVQHVESGGGLVQAGGSLRLSCAASASTFAWYPMGWYRQAPGKERELVAAITRDGSTYYADSVKGRFTISRDNAKNTVYLQMNSLKPEDTAVYYCAADLSYWRGGHSRNYWGQGTQVTVSS
  polyreactivity (PSR sort gate): low polyreactivity

## QVQHVESGGGLVQAGGSLRLSCAASGAIFWGYAMGWYRQAPGKERELVATISWTGGSTYYADSVKGRFTISRDNAKNTVYLQMNSLKPEDTAVYYCAKVIIHYYYLVNLVDVDYWGQGTQVTVSS
  polyreactivity (PSR sort gate): low polyreactivity

## QVQHVESGGGLVQAGGSLRLSCAASGFIFSSYAIGWYRQAPGKEREFVASIRRRGGSTYYAYSVKGRFTISRDNAKNTVILQMNRLIPEDTAVYYCAREVYRHFAPVGYDYWGQGTQVTVSS
  polyreactivity (PSR sort gate): high polyreactivity

## QVQHVESGGGLVQAGGSLRLSCAASGFIFSTNAMGRYRQAPGKERELVATIRSGGSTNYADSVKGRFTISRDNAKYTVYLQMNSLKPEDTAVYYCNVDDTSWTTSGGRFGQVEYDYWGQGTQVTVSS
  polyreactivity (PSR sort gate): low polyreactivity

## QVQHVESGGGLVQAGGSLRLSCAASGFIFWDYAMGWYRQAPGKERELVAAISDSGGDTYYADSVKGRFTISRDNAKNTVYLQMNSLIPEDTAVYYCAAETYCGGYPVTYDYWGQGTQVTVSS
  polyreactivity (PSR sort gate): low polyreactivity

## QVQHVESGGGLVQAGGSLRLSCAASGFIFYRYTMVWYRQAHGKERELVAAISQSGGNTYYADSVKGRFTISRDNAKNTVYLLMNSLKPEDTAVYYCNAVYYYYAGNYWGQGTQVTVSS
  polyreactivity (PSR sort gate): high polyreactivity

## QVQHVESGGGLVQAGGSLRLSCAASGFMFYSYAMGWYRQPPGKEREFVAAITEDGDSSYYADSVKGRFTISRDNAKKTVYLQMNSLKPEDTAVYYCNTDLTFNGTSGDYDYWGQGTQVTVSS
  polyreactivity (PSR sort gate): low polyreactivity

## QVQHVESGGGLVQAGGSLRLSCAASGFTFAIYGKGWYRQAPGKERELVAAINWSGGRTYYADSVKGRFTISRDNAKNTVYVQMQSLKPDDTAVYYCAARYVSRWYDYEFWGQGTQVTVSS
  polyreactivity (PSR sort gate): high polyreactivity

## QVQHVESGGGLVQAGGSLRLSCAASGFTFAWNAMGWYRQAPGKERELVAAITWGDNSTYYADSVKGRFTISRDNAKNTVYLQMNSLKPEDTAVYYCAARVTHWYYLFGYDYWGQATQVTVSS
  polyreactivity (PSR sort gate): low polyreactivity

## QVQHVESGGGLVQAGGSLRLSCAASGFTFFGDYAMGWYRQAPGKERELVAGISVSGGSTYYADSVKGRFTISRDNAKNSVYLQMNSLKPEDTGVYYCAARYSLKGGRYVYWGQGTQVTVSS
  polyreactivity (PSR sort gate): high polyreactivity

## QVQHVESGGGLVQAGGSLRLSCAASGFTFLNYSMGWYRQAPGKERELVAAISFSTGRTYYADSVKGRFTISRDNAKNTVYLQMNSLKPEDTAVYYCNAERGFSDYWGQGTQVTVSS
  polyreactivity (PSR sort gate): high polyreactivity

## QVQHVESGGGLVQAGGSLRLSCAASGFTFTAYAMGWYRQAPGKERELVAAISYRGGRTNYAYSVKGRFTISRDNAKNTVYLQMNSLKPEDTAVYYCAARPRISTREMDYWGQGTKVTVSS
  polyreactivity (PSR sort gate): high polyreactivity

## QVQHVESGGGLVQAGGSLRLSCAASGFTFYSYAMGWYRQSPGKERELVANITIGGSTYADSVKGRFTISRENAKNTVYLQMNSLKPEDTAVYYCAKQYGGRYGYWGQGTQVTVSS
  polyreactivity (PSR sort gate): low polyreactivity

## QVQHVESGGGLVQAGGSLRLSCAASGGIFSIYTRGWYRQAPGKERELVAAITSGGNTNYADSVKGRFTISRDNAKNTVYLQMNSLKPEDTAVYYCAKTYTEYSVTRSGARMDYWGQGTQVTVSS
  polyreactivity (PSR sort gate): low polyreactivity

## QVQHVESGGGLVQAGGSLRLSCAASGGIFVANAMGWYRQAPGKERELVAAISRSGGSTYYADSVKGRFTISRDNAKNTVYLQMNSLKPEDTAVYYCAAKSRRQYTVGLTSDYWGQGTQVTVSS
  polyreactivity (PSR sort gate): low polyreactivity

## QVQHVESGGGLVQAGGSLRLSCAASGGTFRWNAMGWYRQAPGQERELVAAITKSGGSTYYADSVKGRFTISRDNAKNTVYLQMNSLKPEDTAVYYCATDYLRRRDYWGQGTQVTVSS
  polyreactivity (PSR sort gate): high polyreactivity

## QVQHVESGGGLVQAGGSLRLSCAASGIIFGGNAMGWYRQAPGKERELVAGISGSGASTYYADSVKGRFTISRDNAKNTVYLQMNSLKPEDTAVYYCAADGYPGDDYWGQGTQVTVSS
  polyreactivity (PSR sort gate): high polyreactivity

## QVQHVESGGGLVQAGGSLRLSCAASGIIFGSNVMGWYRQAPGKERELVAAISYSGASTYYADSVKGRFTISRDNAKNTVYLQMNSLKPEDTAVYYCAADGHRNGYYYHEYDSWGQGTQVTVSS
  polyreactivity (PSR sort gate): low polyreactivity

## QVQHVESGGGLVQAGGSLRLSCAASGIIFIGNAMGWYRQAPGKEGALVAANTDSGGRTYYADSVKGRFTISRDNAKNSVYLQMNCLKPEDTAVYYCARDRGKNTPYDYWGQGTLVTVSS
  polyreactivity (PSR sort gate): low polyreactivity

## QVQHVESGGGLVQAGGSLRLSCAASGIIIKFYAMGWYRKAPVKERELVATITFSSGTTYYADSVKGRFTMSRDNAKTTVYFQMNSLKPEDTAVYYCAASTLPAWPYDGPAGPRYDYWGQGTQVTVSS
  polyreactivity (PSR sort gate): low polyreactivity

## QVQHVESGGGLVQAGGSLRLSCAASGITFSYYAMGWYIQAPGKEREFVAAISWSGGSTYYADSVKGRFTISRDNAKNTVYLQMNSLKPEVTAVYYCAADRYPYGLDYWGQGTQVTVSS
  polyreactivity (PSR sort gate): high polyreactivity

## QVQHVESGGGLVQAGGSLRLSCAASGLIFSKNVMGWYRQARGKEREFVAAISQRGGSTYYADSVKGRFTISRDNAKNTVYVQMNSLKPEDTAVYYCAADNTVSHEDFWGQGTQVTVSS
  polyreactivity (PSR sort gate): high polyreactivity

## QVQHVESGGGLVQAGGSLRLSCAASGLIFWLNAMGWYRHEPGKEREMVATITAGGDDTNYADPVKGRFTISRDNAKNTVYLQMNSLKPEDTAVYYCAKSRTRSGHYGYDYWGQGTQVTVSS
  polyreactivity (PSR sort gate): low polyreactivity

## QVQHVESGGGLVQAGGSLRLSCAASGLILVYYAMGWYRQAPGKERELVAAITPGGSTKYADSVKGRFTISRDNAKNTVYLQMNSLKPEDTAVYYCAVDGDCHEPGNYIYEYDYWGQGTQVTVSS
  polyreactivity (PSR sort gate): low polyreactivity

## QVQHVESGGGLVQAGGSLRLSCAASGLTFTYYVKGCYRQAPGKERELVAAITVSGGSTYYADSVKGRFTISRDNAKNTVYLQMNSLKPEDTAVYYCAADAYSGYSDYYWGQGTQVTVSS
  polyreactivity (PSR sort gate): low polyreactivity

## QVQHVESGGGLVQAGGSLRLSCAASGNNVMGWYRQAPGKDRELVGAISWSGTSTYADSVKGRFTISRVNAKNTVYLKMNSLKPEDTAVYYCAAEQQGRNYRAYRRYDYWGQGTQVTVSS
  polyreactivity (PSR sort gate): low polyreactivity

## QVQHVESGGGLVQAGGSLRLSCAASGNTFSANAMGWYRQAPVKEREFVASITWSGGSTYYADSVKGRFTFSRDNAKNTVYLQMNSLKPEDTAVYYCAAESWFKYDYWGQGTQVTVSS
  polyreactivity (PSR sort gate): low polyreactivity

## QVQHVESGGGLVQAGGSLRLSCAASGRIFGVYVMGWYRQAPGKERELVAAITGGGSTYYADSVKGRFTISRDNAKNTVYLQMNSLKPEDTAVYYCAARYLVTYGHQQRYYYWGQGTQVTVSS
  polyreactivity (PSR sort gate): high polyreactivity

## QVQHVESGGGLVQAGGSLRLSCAASGRIFPYYAMGWYRQAPGKEREFVAAITKRGGSTSYADSVKGRFTISRDNAKNTVYLQMNSLKPEDTAVYYCAAAGVYYGVRGTTYAYDYWGQGTQVTVSS
  polyreactivity (PSR sort gate): low polyreactivity

## QVQHVESGGGLVQAGGSLRLSCAASGRIFRYNAMGWYRQAPGKERELVAAITNGGSTNYADSVKGRFTISRDNAKNTVYLQMNSLKPEDTAVYYCNAQGRRYSQRYYYWGQGTQVTVSS
  polyreactivity (PSR sort gate): high polyreactivity

## QVQHVESGGGLVQAGGSLRLSCAASGRIFVNYAMGWSRQAPGKERELVAAITYIDSGTYYADSVKGRFTISRDNAKNTVYFQRNSLKPEDTAVYYCAVRLNSDSNRKTQKYGYWGQGTQVTVSS
  polyreactivity (PSR sort gate): low polyreactivity

## QVQHVESGGGLVQAGGSLRLSCAASGRIFVYYAMGWYRQEPGKERELVATISSGGSTYYADSVKGRFTISRDNAKNTVYLHMNSLKPEDTAVYYCNARDWYLWSTYRSWYDYWGEGTQVTVSS
  polyreactivity (PSR sort gate): low polyreactivity

## QVQHVESGGGLVQAGGSLRLSCAASGRIFYLNAMGWYREAPGKERELVAAINTSGDSTYYADSVKGRFTISRDNAKNTVYLQMNSLKPVDTAVFYCAAYVIGPDQFIYDYWGQGTQVTVSS
  polyreactivity (PSR sort gate): low polyreactivity

## QVQHVESGGGLVQAGGSLRLSCAASGRIIYRYAMGWYRQATGKERELVATITWSTTSTYYADSVKGRFTISREYAKNTVYLQMNSLKPVDTAVYYCAASIIPGFRRDPFGYWGQGTQVTVSS
  polyreactivity (PSR sort gate): low polyreactivity
